Test results from US20160237160A1 (Bayer, published 2016).
Where a chain is given by its changes, count along the chain named.

B1: P3G5(TPP-2195) (antibody, mouse IgG2a, kappa, V domains shown)
VH: QVQLQQSGPEVVRPGVSVKISCKGSGYTFTDYGIHWVKQSHAKSLEWIGVISTYNGYTNYNQKFKGKATMTVDKSSSTAYMELARLTSEDSAIYYCARAYYGNLYYAMDYWGQGTSVTVSS
VL: DIVLTQSPASLAVSLGQRATISCRANKSVSTSSYSYMHWYQQKPGQPPKLLIKYASNLESGVPARFSGSGSGTDFILNIHPVEEEDAATYYCQHSRELPFTFGSGTKLEIKR
notes: Murine IgG2a; variable domains from WO2009/140177 with constant region added
B2: TPP-1853 (antibody, human IgG1, kappa, V domains shown)
VH: EVQLLESGGGLVQPGGSLRLSCAASGFTFSPYPMMWVRQAPGKGLEWVSYISPSGGKTHYADSVKGRFTISRDNSKNTLYLQMNSLRAEDTAVYYCARGGDTYFDYFDYWGQGTLVTVSS
VL: DIQMTQSPATLSASVGDRVTITCRASQSISSYLNWYQQKPGKAPKLLIYNASSLQSGVPSRFSGSGSGTDFTLTISSLQPEDFATYYCQQSYTSPGITFGPGTKVEIKR
notes: Human IgG1
B3: TPP-2148 (antibody, human IgG1, kappa, V domains shown)
VH: B2 VH
VL: B2 VL with N50Q, G96F
notes: Human IgG1
B4: TPP-2093 (antibody, human IgG1, kappa, V domains shown)
VH: B2 VH with K57S
VL: B2 VL with A9S, T10S, N50Q, G96F, P101Q
notes: Human IgG1
B5: TPP-883 (antibody, human IgG1, kappa, V domains shown)
VH: B2 VH with T102G
VL: B2 VL with N50A, T93S
notes: Human IgG1; parent antibody from the phage library
B6: TPP-1857 (antibody, human IgG1, kappa, V domains shown)
VH: B2 VH
VL: B2 VL with S31G
notes: Human IgG1
B7: TPP-1854 (antibody, human IgG1, kappa, V domains shown)
VH: B2 VH with M35I
VL: B2 VL with S31G, G96F
notes: Human IgG1
B8: TPP-2149 (antibody, human IgG1, kappa, V domains shown)
VH: B2 VH with M35I
VL: B2 VL with S31G, N50Q, G96F
notes: Human IgG1
B9: TPP-1858 (antibody, human IgG1, kappa, V domains shown)
VH: B2 VH
VL: B2 VL with G96F
notes: Human IgG1
B10: ITEM-4 (antibody, V domains shown)
VH: QVQLQQSGPELVKPGASVKMSCKASGYTFTDFIIAWVKQRTGQGLEWIGEIYPGTGRTYYSEKFRGKATLTADKSSNTAYMQLSSLTSVDSAVYFCARRTIYYDYDGDYWGQGTTLTVSS
VL: DIVMTQAAFSNPVTLGTSASISCRSSKSLLHSNGITYLYWYLQKPGQSPQLLIYQMSNLASGVPDRFSSSGSGTDFTLRISRVEAEDVGVYYCAHNLELPWTFGGGTKLELK
B11: 18.3.3(TPP-2193) (antibody, mouse IgG2a, kappa, V domains shown)
VH: EVKLGESGGGLVQPGGSMKLSCVASGFPFTKYWMNWVRQSPEKGLEWVAEIRLKSDNYATHYAESAKGRFTISRDDSRSSVYLQMNNLRAEDTAIYYCSPTYADTMDYWGQGTSVTVSS
VL: DIVLTQSPASLAVSLGQRATISCKASQSVSTSTYSYMQWYQQRPGQSPKLLIKYASKLDSGVPARFSGSGSGTDFTLNIHPVEEEDTATYYCQHSWELPYTFGGGTRLEIKR
notes: Murine IgG2a; variable domains from WO2009/020933 with constant region added

Tests used:
[1] = target: T1, TPP-599 (HUMAN-TNFRSF12Aaa28-80-hIgG1-Fc) (human); test: ELISA, TWEAKR-Fc coated 62 ng/ml, biotin-IgG titrated; + means IC50 1 to 150 pM;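 note: biotinylated IgG binding to immobilized TWEAKR-Fc muteins, detected with Streptavidin-HRP and Amplex Red, IC50 derived from fitted dose-response curves of twofold serial dilutions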
T1 construct: dimeric; also called human TWEAKR Fc; TWEAKR-Fc
Procedure: (§1) To collect dose-response data, the different TWEAKR-Fc muteins were coated with a low concentration (62 ng/ml) in a 384-well Maxisorb ELISA plate and a serial 2fold dilution of biotinylated IgG starting with a concentration of 100 nM was used as soluble binding partner. Detection was done with Streptavidin-HRP and Amplex Red.
(§2) The dose-response data were fitted and IC50s determined.

[2] = target: TPP-1987 (hTNFRSF12Aaa28-80-S40R-hIgG1-Fc) (human); test: as above
Procedure: as §1, §2

[3] = target: TPP-1990 (hTNFRSF12Aaa28-80-L65Q-hIgG1-Fc) (human); test: as above
Procedure: as §1, §2

[4] = target: TPP-1988 (hTNFRSF12Aaa28-80-M50A-hIgG1-Fc) (human); test: as above
Procedure: as §1, §2

[5] = target: TPP-1986 (hTNFRSF12Aaa28-80-T33Q-hIgG1-Fc) (human); test: as above
Procedure: as §1, §2

[6] = target: TPP-1989 (hTNFRSF12Aaa28-80-H60K-hIgG1-Fc) (human); test: as above
Procedure: as §1, §2

[7] = target: TPP-2683 (hTNFRSF12Aaa28-80-R56P-hIgG1-Fc) (human); test: as above
Procedure: as §1, §2

[8] = target: T2, TPP-2305 (hTNFRSF12Aaa28-80) (Human, UniProt Q9NP84 28-80); test: SPR (Biacore T100), IgG captured, TPP-2305 injected, 1:1 model
T2 construct: monomeric extracellular domain, bought; also called purified recombinant human TWEAKR protein; soluble monomeric TWEAKR
Procedure: Binding affinities of anti-TWEAKR antibodies were determined by surface plasmon resonance analysis on a Biacore T100 instrument (GE Healthcare Biacore, Inc.). Antibodies were immobilized onto a CM5 sensor chip through an indirect capturing reagent, anti-human IgG(Fc). […] Anti-TWEAKR antibodies were injected at a concentration of 10 μg/ml at 10 μl/min for 10 sec.
Sensorgrams were generated after in-line reference cell correction followed by buffer sample subtraction. The dissociation equilibrium constant (KD) was calculated based on the ratio of association (kₒₙ) and dissociation rated (koff) constants, obtained by fitting sensorgrams with a first order 1:1 binding model.

[9] = target: T3, TPP-2202 (TWEAKR-ECD-28-80-hIgGFc-His) (human); test: ELISA, TPP-2202 coated at 1 µg/ml, biotinylated IgG at 0.08 µg/ml (open bar) and 0.3 µg/ml (filled bar), Streptavidin-HRP, Amplex Red
T3 construct: dimeric; also called TWEAKR-Fc fusion protein; full ectodomain 28-80
T3 sequence (chain, as listed by the source limits assumed): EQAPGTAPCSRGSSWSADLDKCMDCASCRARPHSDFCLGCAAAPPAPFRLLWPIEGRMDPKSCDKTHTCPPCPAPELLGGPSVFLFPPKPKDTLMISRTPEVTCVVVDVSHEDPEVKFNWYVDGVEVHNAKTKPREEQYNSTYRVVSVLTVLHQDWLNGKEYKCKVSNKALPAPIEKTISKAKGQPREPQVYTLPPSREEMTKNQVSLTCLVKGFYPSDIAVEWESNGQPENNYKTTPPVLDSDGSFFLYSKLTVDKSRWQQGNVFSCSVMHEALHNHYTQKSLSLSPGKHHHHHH
Procedure: (§3) Detection was done with Streptavidin-HRP and Amplex-Red substrate.
(§4) To analyze for binding, 1 μg/ml of the respective dimeric TWEAKR-Fc construct were coated and, 0.3 μg/ml and 0.08 μg/ml of biotinylated IgG were used as soluble binding partner. Detection was done with Streptavidin-HRP and Amplex-Red substrate.

[10] = target: T4, TPP-2203 (TWEAKR-ECD-34-68-hIgGFc-His) (human); test: ELISA, TPP-2203 coated at 1 µg/ml, biotinylated IgG at 0.08 µg/ml (open bar) and 0.3 µg/ml (filled bar), Streptavidin-HRP, Amplex Red
T4 construct: dimeric; also called TWEAKR(34-68)-Fc fusion protein; truncated ectodomain 34-68
Procedure: as §3, §4

[11] = target: T5, TPP-2614 (TweakR-ECD-34-68-hIgGFc-His-D47A) (human); test: ELISA, IgG coated 1 ug/ml, TWEAKR variant 250 ng/ml, anti-HIS HRP (FIG. 6C)
T5 construct: also called D47A TWEAKR mutein
Procedure: Antibodies were coated (1 μg/ml), TWEAKR variant was added at 250 ng/ml, detection via anti-HIS HRP. […] Antibodies were coated (1 μg/ml), TWEAKR variant was added 250 ng/ml, detection via anti-HIS HRP.

[12] = target: T6, TWEAKR (TNFRSF12A, FN14), human, on tumor cell lines (human, UniProt Q9NP84 28-129); test: cell-based or functional assay
[13] = target: T6, TWEAKR (TNFRSF12A, FN14), human, on …; test: FACS, HT29 cells, 10 ug/ml
Procedure: (§5) To determine the binding characteristics of the anti-TWEAKR antibodies on mouse and human cancer cell lines, binding was tested by flow cytometry to a panel of cell lines. […] Cells were suspended at approximately 10⁵ cells/well in FACS buffer (PBS without Ca/Mg, containing 3% FCS, Biochrom). Cells were centrifuged (250 g, 5 min, 4° C.) and supernatant discarded. Cells were resuspended in dilutions of the antibodies of interest (10 μg/ml in 80 μl if not indicated otherwise) in FACS buffer, and incubated on ice for 1 h. […] After incubation for 1 h on ice cells were again washed with cold FACS buffer, resuspended in 1000 FACS buffer and analyzed by flow cytometry using a FACS-Array (BD Biosciences). Results are calculated as Geo Mean of fluorescence detected by the antibody of interest subtracted by background fluorescence as measured by detection with the secondary antibody alone. Values are scored according to the following system: Geo Mean−Geo Mean of secondary antibody alone >10: +, >100: ++, >1000: +++, 10000: ++++, close to category border in ( ).

[14] = target: T6, TWEAKR (TNFRSF12A, FN14), human, on …; test: FACS, A375 cells, 10 ug/ml
Procedure: as §5

[15] = target: T6, TWEAKR (TNFRSF12A, FN14), human, on …; test: FACS, WiDr cells, 10 ug/ml
Procedure: as §5

[16] = target: T6, TWEAKR (TNFRSF12A, FN14), human, on …; test: cell-based or functional assay; remark: listed apart in the source
[17] = target: T6, TWEAKR (TNFRSF12A, FN14), human, on …; test: FACS, SKOV-3 cells, 10 ug/ml
Procedure: as §5

[18] = target: T6, TWEAKR (TNFRSF12A, FN14), human, on …; test: FACS, NCI-H322 cells, 10 ug/ml
Procedure: as §5

[19] = target: T6, TWEAKR (TNFRSF12A, FN14), human, on …; test: FACS, 786-O cells, 10 ug/ml
Procedure: as §5

[20] = target: T6, TWEAKR (TNFRSF12A, FN14), human, on …; test: cell-based or functional assay; remark: listed apart in the source

| Binder | Kd [8] [nM] | koff [8] [s⁻¹] | kon [8] [M⁻¹ s⁻¹] | % binding normalized by wt binding signal [11] [%] | Fold induction of Caspase 3/7, 786-O cells, 100 ug/ml [12] [fold] | Fold induction of Caspase 3/7, HT-29 cells, 100 ug/ml [12] [fold] | Fold induction of Caspase 3/7, NCI-H322 cells, 100 ug/ml [12] [fold] | also measured |
| --- | --- | --- | --- | --- | --- | --- | --- | --- |
| B1 | 0.5 | 0.00122 | 2.31e+06 |  |  |  |  | binding result [1]: binds; binding result [2]: binds; binding result [3]: binds; binding result [4]: binds; binding result [5]: binds; binding result [6]: binds; binding result [7]: binds; binding result [9]: binds; binding result [10]: binds |
| B2 |  |  |  | < 5 | 1.88 | 2.53 | 1.94 |  |
| B3 | 24.5 | 0.13 | 5.1e+06 | < 5 |  |  |  |  |
| B4 | 22.1 | 0.09 | 4.1e+06 | < 5 | 1.43 | 2.54 |  | GeoMean of Fluorescence minus GeoMean with the secondary antibody only [13]: 875; GeoMean of Fluorescence minus GeoMean with the secondary antibody only [14]: 255; GeoMean of Fluorescence minus GeoMean with the secondary antibody only [15]: 1720; % Inhibition of proliferation, A253 cells, 72h, 100 ug/ml [16]: > 100%; % Inhibition of proliferation, HT-29 cells, 24h, 100 ug/ml [16]: > 100%; GeoMean of Fluorescence minus GeoMean with the secondary antibody only [17]: 2180; GeoMean of Fluorescence minus GeoMean with the secondary antibody only [18]: 160; GeoMean of Fluorescence minus GeoMean with the secondary antibody only [19]: 18200 |
| B5 | 206 | 0.91 | 4.4e+06 | < 5 |  |  |  |  |
| B6 |  |  |  | < 5 | 1.76 | 2.37 | 1.89 |  |
| B7 |  |  |  | < 5 | 2.11 | 2.7 | 1.98 | IL-8 release from A375 cells at 100 ug/ml, % of the activation by 300 ng/ml TWEAK ligand [20]: 129% |
| B8 | 12.1 | 0.1 | 8.4e+06 | < 5 |  |  |  |  |
| B9 |  |  |  | < 5 | 2.22 | 2.41 | 2.01 |  |
| B10 | 0.7 |  |  |  |  |  |  |  |
| B11 | 1.7 | 0.0285 | 1.64e+07 |  |  |  |  | binding result [1]: binds; binding result [2]: binds; binding result [3]: binds; binding result [4]: binds; binding result [5]: binds; binding result [6]: binds |
